T1: Aktide biosensor RRRRRSVDSHGGKbiotinGG (SEQ ID NO:11)
T1 sequence: RRRRRSVDSHGGKGG

T2: candidate biosensor peptide substrate WHLQTWCGYGGKbiotinGG (SEQ ID NO:12)
T2 chain: WHLQTWCGYGGKGG

B1: LKB1 serine/threonine kinase (Liver Kinase B1) (protein)
chain: MEVVDPQQLGMFTEGELMSVGMDTFIHRIDSTEVIYQPRRKRAKLIGKYLMGDLLGEGSYGKVKEVLDSETLCRRAVKILKKKKLRRIPNGEANVKKEIQLLRRLRHKNVIQLVDVLYNEEKQKMYMVMEYCVCGMQEMLDSVPEKRFPVCQAHGYFCQLIDGLEYLHSQGIVHKDIKPGNLLLTTGGTLKISDLGVAEALHPFAADDTCRTSQGSPAFQPPEIANGLDTFSGFKVDIWSAGVTLYNITTGLYPFEGDNIYKLFENIGKGSYAIPGDCGPPLSDLLKGMLEYEPAKRFSIRQIRQHSWFRKKHPPAEAPVPIPPSPDTKDRWRSMTVVPYLEDLHGADEDEDLFDIEDDIIYTQDFTVPGQVPEEEASHNGQRRGLPKAVCMNGTEAAQLSTKSRAEGRAPNPARKACSASSKIRRLSACKQQ

Columns and labels:
[1] = system: T1, Aktide biosensor RRRRRSVDSHGGKbiotinGG (SEQ ID NO:11)
[2] = biological target: the other five peptides (of six candidate biosensors peptides screened with LKB1)
[3] = biological target: T2, candidate biosensor peptide substrate …

Molecule | phosphorylation of the peptide in a time-course in vitro kinase assay (MALDI/TOF/TOF-MS; 0, 30, 60, 120 min) [1] | phosphorylation of the peptide in an in vitro kinase assay (MALDI/TOF/TOF-MS) [1] | phosphorylation of the peptide in an in vitro kinase assay screen with LKB1 [2] | phosphorylation of the peptide in an in vitro kinase assay (LC ESI-MS) [3]
Akt serine/threonine kinase (protein kinase B) | Nearly complete conversion to phosphorylated product was observed after 2 hr. | this peptide sequence is able to be efficiently phosphorylated by Akt over a 2 hr kinase assay | – | –
B1 | – | – | Out of these six, one sequence, WHLQTWCGYGGKbiotinGG (SEQ ID NO:12), was shown to be partially phosphorylated by LKB1 after a 3 hr reaction. | this initial peptide sequence is able to be partially phosphorylated by LKB1 after a 3 hr reaction

Source: US20180282372
